Measurements as given in article PMC4120840.
Changes are numbered by the printed parent chain. Numbers in names are those of the source.

B1: UBA3 (NEDD8 activating enzyme, NAE) (Homo sapiens) (protein)
chain: ADGEEPEKKRRRIEELLAEKMAVDGGCGDTGDWEGRWNHVKKFLERSGPFTHPDFEPSTESLQFLLDTCKVLVIGAGGLGCELLKNLALSGFRQIHVIDMDTIDVSNLNRQFLFRPKDIGRPKAEVAAEFLNDRVPNCNVVPHFNKIQDFNDTFYRQFHIIVCGLDSIIARRWINGMLISLLNYEDGVLDPSSIVPLIDGGTEGFKGNARVILPGMTACIECTLELYPPQVNFPMCTIASMPRLPEHCIEYVRMLQWPKEQPFGEGVPLDGDDPEHIQWIFQKSLERASQYNIRGVTYRLTQGVVKRIIPAVASTNAVIAAVCATEVFKIATSAYIPLNNYLVFNDVDGLYTYTFEAERKENCPACSQLPQNIQFSPSAKLQEVLDYLTNSASLQMKSPAITATLEGKNRTLYLQSVTSIEERTRPNLSKTLKELGLVDGQELAVADVTTPQTVLFKLHFTS
B2: UBA3 A171T (NEDD8 activating enzyme, NAE (UBA3 A171T)) (Homo sapiens; A171T) (protein)
chain: B1 chain with A170T

Substrate: Nc1ncnc2c1ncn2[C@@H]1O[C@H](COP(=O)(O)OP(=O)(O)OP(=O)(O)O)[C@@H](O)[C@H]1O
Assay: purified protein
Assay type: biochemical, Homo sapiens
Details: MgCl2 UBA3 nucleotide binding pocket

Protein	Km [µM]
B1	243
B2	1006
